# Reference: patent US20260167699A1 (Chugai, published 2026)
# T1: FcγRIIa(R) extracellular domain, C-terminal His tag (human, UniProt P12318 34-217)
# T1 construct: extracellular domain; Allotype R131; also called 2aR
# T1 sequence: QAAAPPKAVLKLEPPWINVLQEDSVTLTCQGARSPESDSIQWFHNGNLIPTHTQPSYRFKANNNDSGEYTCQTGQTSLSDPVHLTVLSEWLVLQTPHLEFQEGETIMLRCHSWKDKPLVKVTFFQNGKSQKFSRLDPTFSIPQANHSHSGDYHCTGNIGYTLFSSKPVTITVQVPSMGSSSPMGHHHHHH
# T2: FcγRIIa(H) extracellular domain, C-terminal His tag (human, UniProt P12318 34-217)
# T2 construct: extracellular domain; Allotype H131; also called 2aH
# T2 sequence: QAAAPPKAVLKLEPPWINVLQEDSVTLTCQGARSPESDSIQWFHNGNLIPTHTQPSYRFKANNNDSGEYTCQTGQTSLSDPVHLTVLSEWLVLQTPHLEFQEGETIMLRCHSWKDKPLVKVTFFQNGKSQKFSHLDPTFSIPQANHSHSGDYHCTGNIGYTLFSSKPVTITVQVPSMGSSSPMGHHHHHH
# T3: FcγRIIb extracellular domain, C-terminal His tag (human, UniProt P31994 43-217)
# T3 construct: extracellular domain; also called 2b
# T3 sequence: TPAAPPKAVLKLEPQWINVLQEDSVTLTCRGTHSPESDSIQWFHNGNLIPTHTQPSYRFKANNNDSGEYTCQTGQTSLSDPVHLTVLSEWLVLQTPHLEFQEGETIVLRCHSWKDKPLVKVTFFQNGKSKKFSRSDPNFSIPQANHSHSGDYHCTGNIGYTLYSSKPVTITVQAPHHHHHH
# Experiments:
# Assay in all cases: SPR (Biacore); binding relative to GpH7-A5/GpH7-B3/GpL16-k0 x100;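 also: antibodies captured on a chip surface, soluble FcγR flowed over in HBS-EP+ running buffer at 25 °C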
# [1] = molecular target: T4, FcγRIa extracellular domain, C-terminal His tag (human, UniProt P12314 16-292)
# T4 construct: extracellular domain; also called 1a
# T4 sequence (P12314 other isoform, or with tags, fused parts or gaps): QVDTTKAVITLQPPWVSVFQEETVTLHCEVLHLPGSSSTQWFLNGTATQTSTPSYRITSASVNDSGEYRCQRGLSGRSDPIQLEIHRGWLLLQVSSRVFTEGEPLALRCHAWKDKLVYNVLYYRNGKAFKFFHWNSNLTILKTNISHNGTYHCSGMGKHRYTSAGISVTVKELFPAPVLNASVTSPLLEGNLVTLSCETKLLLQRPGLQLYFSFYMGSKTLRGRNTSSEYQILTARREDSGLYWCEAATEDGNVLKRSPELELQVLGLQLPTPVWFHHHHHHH
# [2] = molecular target: T1, FcγRIIa(R) extracellular domain, …
# [3] = molecular target: T2, FcγRIIa(H) extracellular domain, …
# [4] = molecular target: T3, FcγRIIb extracellular domain, …
# [5] = molecular target: T5, FcγRIIIa extracellular domain, C-terminal His tag (human, UniProt P08637 17-208)
# T5 construct: extracellular domain; also called 3a
# T5 sequence (P08637 other isoform, or with tags, fused parts or gaps): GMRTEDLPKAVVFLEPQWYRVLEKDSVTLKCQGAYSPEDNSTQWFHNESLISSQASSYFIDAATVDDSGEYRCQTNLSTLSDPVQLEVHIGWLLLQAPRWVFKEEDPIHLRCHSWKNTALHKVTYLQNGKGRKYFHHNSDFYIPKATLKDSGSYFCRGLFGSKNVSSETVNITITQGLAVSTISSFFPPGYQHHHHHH
Binder,He/Con 1a [1] [%],He/Con 2aR [2] [%],He/Con 2aH [3] [%],He/Con 2b [4] [%],He/Con 3a [5] [%]
"GpH7-A5/GpH7-B3 variant P331_09D/GpL16-k0 (antibody, human IgG1, kappa, He Ab: anti-glypican 3 IgG1 heterodimer, only the GpH7-B3 chain mutated; position in EU numbering; also called He Ab) heavy 1: not shown heavy 2: not shown light: DIVMTQSPLSLPVTPGEPASISCQASESLVHSNRNTYLHWYLQKPGQSPQLLIYKVSNRFSGVPDRFSGSGSGTDFTLKISRVEAEDVGVYYCSQNTHVPPTFGQGTKVEIERTVAAPSVFIFPPSDEQLKSGTASVVCLLNNFYPREAKVQWKVDNALQSGNSQESVTEQDSKDSTYSLSSTLTLSKADYEKHKVYACEVTHQGLSSPVTKSFNRGEC",109,101,93.6,104,71.6
"GpH7-A5/GpH7-B3 variant S324_01G/GpL16-k0 (antibody, human IgG1, kappa, He Ab: anti-glypican 3 IgG1 heterodimer, only the GpH7-B3 chain mutated; position in EU numbering; also called He Ab) heavy 1: not shown heavy 2: not shown light: DIVMTQSPLSLPVTPGEPASISCQASESLVHSNRNTYLHWYLQKPGQSPQLLIYKVSNRFSGVPDRFSGSGSGTDFTLKISRVEAEDVGVYYCSQNTHVPPTFGQGTKVEIERTVAAPSVFIFPPSDEQLKSGTASVVCLLNNFYPREAKVQWKVDNALQSGNSQESVTEQDSKDSTYSLSSTLTLSKADYEKHKVYACEVTHQGLSSPVTKSFNRGEC",93.2,94.4,110,106,114
"GpH7-A5/GpH7-B3 variant P331_15Y/GpL16-k0 (antibody, human IgG1, kappa, He Ab: anti-glypican 3 IgG1 heterodimer, only the GpH7-B3 chain mutated; position in EU numbering; also called P331_I5Y; He Ab) heavy 1: not shown heavy 2: not shown light: DIVMTQSPLSLPVTPGEPASISCQASESLVHSNRNTYLHWYLQKPGQSPQLLIYKVSNRFSGVPDRFSGSGSGTDFTLKISRVEAEDVGVYYCSQNTHVPPTFGQGTKVEIERTVAAPSVFIFPPSDEQLKSGTASVVCLLNNFYPREAKVQWKVDNALQSGNSQESVTEQDSKDSTYSLSSTLTLSKADYEKHKVYACEVTHQGLSSPVTKSFNRGEC",109,112,89,127,74.9
"GpH7-A5/GpH7-B3 variant P331_19Q/GpL16-k0 (antibody, human IgG1, kappa, He Ab: anti-glypican 3 IgG1 heterodimer, only the GpH7-B3 chain mutated; position in EU numbering; also called He Ab) heavy 1: not shown heavy 2: not shown light: DIVMTQSPLSLPVTPGEPASISCQASESLVHSNRNTYLHWYLQKPGQSPQLLIYKVSNRFSGVPDRFSGSGSGTDFTLKISRVEAEDVGVYYCSQNTHVPPTFGQGTKVEIERTVAAPSVFIFPPSDEQLKSGTASVVCLLNNFYPREAKVQWKVDNALQSGNSQESVTEQDSKDSTYSLSSTLTLSKADYEKHKVYACEVTHQGLSSPVTKSFNRGEC",108,96.1,91.6,94,73.9
"GpH7-A5/GpH7-B3 variant P331_11K/GpL16-k0 (antibody, human IgG1, kappa, He Ab: anti-glypican 3 IgG1 heterodimer, only the GpH7-B3 chain mutated; position in EU numbering; also called He Ab) heavy 1: not shown heavy 2: not shown light: DIVMTQSPLSLPVTPGEPASISCQASESLVHSNRNTYLHWYLQKPGQSPQLLIYKVSNRFSGVPDRFSGSGSGTDFTLKISRVEAEDVGVYYCSQNTHVPPTFGQGTKVEIERTVAAPSVFIFPPSDEQLKSGTASVVCLLNNFYPREAKVQWKVDNALQSGNSQESVTEQDSKDSTYSLSSTLTLSKADYEKHKVYACEVTHQGLSSPVTKSFNRGEC",100,94.6,83.7,93.9,61.8
"GpH7-A5/GpH7-B3 variant P331_14T/GpL16-k0 (antibody, human IgG1, kappa, He Ab: anti-glypican 3 IgG1 heterodimer, only the GpH7-B3 chain mutated; position in EU numbering; also called He Ab) heavy 1: not shown heavy 2: not shown light: DIVMTQSPLSLPVTPGEPASISCQASESLVHSNRNTYLHWYLQKPGQSPQLLIYKVSNRFSGVPDRFSGSGSGTDFTLKISRVEAEDVGVYYCSQNTHVPPTFGQGTKVEIERTVAAPSVFIFPPSDEQLKSGTASVVCLLNNFYPREAKVQWKVDNALQSGNSQESVTEQDSKDSTYSLSSTLTLSKADYEKHKVYACEVTHQGLSSPVTKSFNRGEC",102,104,86.5,111,67.8
"GpH7-A5/GpH7-B3 variant P331_10E/GpL16-k0 (antibody, human IgG1, kappa, He Ab: anti-glypican 3 IgG1 heterodimer, only the GpH7-B3 chain mutated; position in EU numbering; also called He Ab) heavy 1: not shown heavy 2: not shown light: DIVMTQSPLSLPVTPGEPASISCQASESLVHSNRNTYLHWYLQKPGQSPQLLIYKVSNRFSGVPDRFSGSGSGTDFTLKISRVEAEDVGVYYCSQNTHVPPTFGQGTKVEIERTVAAPSVFIFPPSDEQLKSGTASVVCLLNNFYPREAKVQWKVDNALQSGNSQESVTEQDSKDSTYSLSSTLTLSKADYEKHKVYACEVTHQGLSSPVTKSFNRGEC",108,112,90.1,128,68.7

# Other lines, results leading:
He/Con 1a [1] [%],He/Con 2aR [2] [%],He/Con 2aH [3] [%],He/Con 2b [4] [%],He/Con 3a [5] [%],Binder
106,109,80.1,127,60.4,"GpH7-A5/GpH7-B3 variant P331_07I/GpL16-k0 (antibody, human IgG1, kappa, He Ab: anti-glypican 3 IgG1 heterodimer, only the GpH7-B3 chain mutated; position in EU numbering; also called He Ab) heavy 1: not shown heavy 2: not shown light: DIVMTQSPLSLPVTPGEPASISCQASESLVHSNRNTYLHWYLQKPGQSPQLLIYKVSNRFSGVPDRFSGSGSGTDFTLKISRVEAEDVGVYYCSQNTHVPPTFGQGTKVEIERTVAAPSVFIFPPSDEQLKSGTASVVCLLNNFYPREAKVQWKVDNALQSGNSQESVTEQDSKDSTYSLSSTLTLSKADYEKHKVYACEVTHQGLSSPVTKSFNRGEC"
106,104,87.2,110,67.1,"GpH7-A5/GpH7-B3 variant P331_18N/GpL16-k0 (antibody, human IgG1, kappa, He Ab: anti-glypican 3 IgG1 heterodimer, only the GpH7-B3 chain mutated; position in EU numbering; also called He Ab) heavy 1: not shown heavy 2: not shown light: DIVMTQSPLSLPVTPGEPASISCQASESLVHSNRNTYLHWYLQKPGQSPQLLIYKVSNRFSGVPDRFSGSGSGTDFTLKISRVEAEDVGVYYCSQNTHVPPTFGQGTKVEIERTVAAPSVFIFPPSDEQLKSGTASVVCLLNNFYPREAKVQWKVDNALQSGNSQESVTEQDSKDSTYSLSSTLTLSKADYEKHKVYACEVTHQGLSSPVTKSFNRGEC"
96.9,99.9,114,102,113,"GpH7-A5/GpH7-B3 variant S324_02A/GpL16-k0 (antibody, human IgG1, kappa, He Ab: anti-glypican 3 IgG1 heterodimer, only the GpH7-B3 chain mutated; position in EU numbering; also called He Ab) heavy 1: not shown heavy 2: not shown light: DIVMTQSPLSLPVTPGEPASISCQASESLVHSNRNTYLHWYLQKPGQSPQLLIYKVSNRFSGVPDRFSGSGSGTDFTLKISRVEAEDVGVYYCSQNTHVPPTFGQGTKVEIERTVAAPSVFIFPPSDEQLKSGTASVVCLLNNFYPREAKVQWKVDNALQSGNSQESVTEQDSKDSTYSLSSTLTLSKADYEKHKVYACEVTHQGLSSPVTKSFNRGEC"
108,104,94,107,80.9,"GpH7-A5/GpH7-B3 variant P331_13S/GpL16-k0 (antibody, human IgG1, kappa, He Ab: anti-glypican 3 IgG1 heterodimer, only the GpH7-B3 chain mutated; position in EU numbering; also called He Ab) heavy 1: not shown heavy 2: not shown light: DIVMTQSPLSLPVTPGEPASISCQASESLVHSNRNTYLHWYLQKPGQSPQLLIYKVSNRFSGVPDRFSGSGSGTDFTLKISRVEAEDVGVYYCSQNTHVPPTFGQGTKVEIERTVAAPSVFIFPPSDEQLKSGTASVVCLLNNFYPREAKVQWKVDNALQSGNSQESVTEQDSKDSTYSLSSTLTLSKADYEKHKVYACEVTHQGLSSPVTKSFNRGEC"
104,118,122,126,124,"GpH7-A5/GpH7-B3 variant S324_06M/GpL16-k0 (antibody, human IgG1, kappa, He Ab: anti-glypican 3 IgG1 heterodimer, only the GpH7-B3 chain mutated; position in EU numbering; also called He Ab) heavy 1: not shown heavy 2: not shown light: DIVMTQSPLSLPVTPGEPASISCQASESLVHSNRNTYLHWYLQKPGQSPQLLIYKVSNRFSGVPDRFSGSGSGTDFTLKISRVEAEDVGVYYCSQNTHVPPTFGQGTKVEIERTVAAPSVFIFPPSDEQLKSGTASVVCLLNNFYPREAKVQWKVDNALQSGNSQESVTEQDSKDSTYSLSSTLTLSKADYEKHKVYACEVTHQGLSSPVTKSFNRGEC"
105,101,85.9,106,66,"GpH7-A5/GpH7-B3 variant P331_08L/GpL16-k0 (antibody, human IgG1, kappa, He Ab: anti-glypican 3 IgG1 heterodimer, only the GpH7-B3 chain mutated; position in EU numbering; also called He Ab) heavy 1: not shown heavy 2: not shown light: DIVMTQSPLSLPVTPGEPASISCQASESLVHSNRNTYLHWYLQKPGQSPQLLIYKVSNRFSGVPDRFSGSGSGTDFTLKISRVEAEDVGVYYCSQNTHVPPTFGQGTKVEIERTVAAPSVFIFPPSDEQLKSGTASVVCLLNNFYPREAKVQWKVDNALQSGNSQESVTEQDSKDSTYSLSSTLTLSKADYEKHKVYACEVTHQGLSSPVTKSFNRGEC"
107,109,85.8,123,71.9,"GpH7-A5/GpH7-B3 variant P331_20W/GpL16-k0 (antibody, human IgG1, kappa, He Ab: anti-glypican 3 IgG1 heterodimer, only the GpH7-B3 chain mutated; position in EU numbering; also called He Ab) heavy 1: not shown heavy 2: not shown light: DIVMTQSPLSLPVTPGEPASISCQASESLVHSNRNTYLHWYLQKPGQSPQLLIYKVSNRFSGVPDRFSGSGSGTDFTLKISRVEAEDVGVYYCSQNTHVPPTFGQGTKVEIERTVAAPSVFIFPPSDEQLKSGTASVVCLLNNFYPREAKVQWKVDNALQSGNSQESVTEQDSKDSTYSLSSTLTLSKADYEKHKVYACEVTHQGLSSPVTKSFNRGEC"
105,113,87.5,128,73.4,"GpH7-A5/GpH7-B3 variant P331_16H/GpL16-k0 (antibody, human IgG1, kappa, He Ab: anti-glypican 3 IgG1 heterodimer, only the GpH7-B3 chain mutated; position in EU numbering; also called He Ab) heavy 1: not shown heavy 2: not shown light: DIVMTQSPLSLPVTPGEPASISCQASESLVHSNRNTYLHWYLQKPGQSPQLLIYKVSNRFSGVPDRFSGSGSGTDFTLKISRVEAEDVGVYYCSQNTHVPPTFGQGTKVEIERTVAAPSVFIFPPSDEQLKSGTASVVCLLNNFYPREAKVQWKVDNALQSGNSQESVTEQDSKDSTYSLSSTLTLSKADYEKHKVYACEVTHQGLSSPVTKSFNRGEC"
